Experimental data published in patent US11648290B2, “Cartilage-homing peptides” (FRED HUTCHINSON CANCER CENTER, priority 2015, dated 2023).

Columns and labels:
trypsin = target: T1, trypsin (Bos taurus, UniProt P00760); assay: Peptide resistance to trypsin digestion (RP-HPLC); type: in vitro ADME
T1 construct: gene PRSS1
T1 sequence (P00760 24-246): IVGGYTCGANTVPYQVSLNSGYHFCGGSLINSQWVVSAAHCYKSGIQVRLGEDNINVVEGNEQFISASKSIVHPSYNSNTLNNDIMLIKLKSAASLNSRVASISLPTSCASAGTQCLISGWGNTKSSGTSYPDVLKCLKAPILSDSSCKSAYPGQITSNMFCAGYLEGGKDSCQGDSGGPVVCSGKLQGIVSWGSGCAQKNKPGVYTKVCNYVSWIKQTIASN
Experimental: Various peptides were suspended in 500 μl of ddH2O at a stock concentration of 2 mg/ml. Reactions were prepared with 12.5 μg peptide and 5 μg trypsin in 25 mM Tris/75 mM NaCl buffer (pH 7.0) and incubated for 30 minutes at 37.5° C. Reactions were quenched with 5 μg of soybean trypsin inhibitor and 10 mM dithiothreitol (DTT). Reversed phase HPLC (RP-HPLC) was run on samples using an Agilent 1260 HPLC equipped with a C-18 Poroshell 120B column. Sample were analyzed by a gradient method with a mobile phase of Solvent A (water with 0.1% TFA) and Solvent B (acetonitrile with 0.1% TFA). Solvent B was ramped up from 5%-45% of the mobile phase over a period of 10 minutes.

[1] = Temperature stability of peptides (RP-HPLC); type: physicochemical
Experimental: This example illustrates peptide stability at high temperatures. Peptides were first suspended in 500 μl of ddH2O to a stock concentration of 2 mg/ml. Reactions were prepared by adding 6.25 μl of peptide from the stock solution with 95 μl ddH2O and incubated at room temperature, 70° C., or 100° C. for one hour in a Thermocycler. RP-HPLC was then run on samples using an Agilent 1260 HPLC equipped with a C-18 Poroshell 120B column. Sample were analyzed by a gradient method with a mobile phase of Solvent A (water with 0.1% TFA) and Solvent B (acetonitrile with 0.1% TFA). Solvent B was ramped up from 5%-45% of the mobile phase over a period of 10 minutes.
Peptides of SEQ ID NO: 28 and SEQ ID NO: 483 were analyzed by HPLC after incubation at room temperature (25° C.), 70° C., or 100° C. for one hour.

## GSISIGIKCSPSIDLCEGQCRIRKYFTGYCSGDTCHCSG [SEQ ID NO: 483]
trypsin; 12.5 ug peptide, 5 ug trypsin, pH 7.0, 30 minutes at 37.5 C
  Resistance to degradation by trypsin: partially resistant to degradation by trypsin
trypsin; 10 mM DTT
  Resistance to reduction by DTT (FIG. 54): partially resistant to reduction by DTT
[1]; 70 C for 1 hour
  Stability after heat incubation (HPLC): resistant to heat-induced degradation
[1]; 100 C for 1 hour
  Stability after heat incubation (HPLC): underwent various degrees of degradation
